Target: V. parahaemolyticus YeaZ, fragment 1-213 as in the crystals (Vibrio parahaemolyticus)
Test: crystal structure; X-ray, 3.1 Å; asymmetric unit with four subunits (two dimers related by a non-crystallographic two-fold axis); crystals of fragment 1-213; no nucleotide

Which stoichiometry N does the source give for “V. parahaemolyticus YeaZ, fragment 1-213 as in the crystals (domain or fragment)” here?
The stoichiometry N was 2.

— PMC3157347
